For test [1], the target named is phospholipid scramblase 3 alpha (PLS3α) (human) (UniProt Q9NRY6). In words: cell-based or functional assay.
Test [2] has as its target phospholipid scramblase 3 (PLS3), human, isoform not stated (human) (UniProt Q9NRY6). In words: co-immunoprecipitation with PLS3 antibody, estimated against a PKC-δ blot (not shown).

phospholipid scramblase 3 alpha (PLS3α) (human), sequence (Q9NRY6 other isoform, or with tags, fused parts or gaps limits assumed): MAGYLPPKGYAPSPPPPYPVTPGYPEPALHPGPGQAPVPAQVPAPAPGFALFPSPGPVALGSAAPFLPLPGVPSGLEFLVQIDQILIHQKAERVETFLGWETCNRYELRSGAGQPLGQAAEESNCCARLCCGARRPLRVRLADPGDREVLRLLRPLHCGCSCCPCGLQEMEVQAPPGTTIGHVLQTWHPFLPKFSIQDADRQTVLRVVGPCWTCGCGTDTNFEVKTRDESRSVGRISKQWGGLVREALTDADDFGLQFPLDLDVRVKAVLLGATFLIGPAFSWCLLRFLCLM
phospholipid scramblase 3 (PLS3), human, isoform not stated (human), sequence (Q9NRY6 whole entry, canonical isoform): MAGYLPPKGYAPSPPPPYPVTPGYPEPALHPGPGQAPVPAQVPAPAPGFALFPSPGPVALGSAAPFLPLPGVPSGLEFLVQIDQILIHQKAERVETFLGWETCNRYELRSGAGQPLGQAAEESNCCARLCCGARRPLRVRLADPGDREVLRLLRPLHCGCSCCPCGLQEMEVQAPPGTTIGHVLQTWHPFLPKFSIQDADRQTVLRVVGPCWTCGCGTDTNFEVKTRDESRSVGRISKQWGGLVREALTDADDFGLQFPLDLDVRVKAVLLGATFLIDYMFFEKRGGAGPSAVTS

In test [1], “Bcl-B (untagged, from pcDNA-Bcl-B or pBcl-B-IRES-EGFP) (from UniProt Q9HD36 1-204)” registered a percentage of cardiolipin at the outer membrane (shoulder of the NAO curve) of 50% and a proportion of sub-G1 cells, or the apoptotic population (propidium iodide) of 15.4%.

As to “PKC-δ (cellular, HEK293 cells) (from UniProt Q05655 1-676) (enzyme)”, the percent of total cellular PKC-δ co-immunoprecipitated with PLS3 in test [2] is 5 to 10%.

The values above are taken from patent US20060172958A1, “Phospholipid scramblase 3” (priority 2003, published 2006).
